In article PMC314469, “Protein Interaction Networks by Proteome Peptide Scanning” (PLoS Biology, 2004):

T1: amphyphisin SH3 (AMPH_HUMAN), P49418
T1 chain: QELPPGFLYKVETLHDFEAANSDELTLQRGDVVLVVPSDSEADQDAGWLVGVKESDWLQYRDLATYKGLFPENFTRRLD


Assays:
[1] = target: T1, amphyphisin SH3 (AMPH_HUMAN), P49418; test: SPOT array
[2] = target: endophilin SH3 (SH3G2_HUMAN), Q99962; test: SPOT array

Row | normalised SPOT signal, Boehringer light units (BLU); mean over the file's lines of this peptide [1] | normalised SPOT signal, Boehringer light units (BLU); mean over the file's lines of this peptide [2] | Binder
1 | 1930 | 9490 | PPPLPRRPSTPRQG [O75412 1048-1061]
2 | 8890 | 37500 | PPQIPSRPVRIPPG [P50570 828-841]
3 | 170 | 1020 | PPPTPRRPASVNGS [O43584 96-109]
4 | 7550 | 13900 | PPKRPGRPPKNRES [P55201 903-917]
5 | 1320 | 9250 | PPGPPTRPPGPWRW [O15354 108-122]
6 | 1380 | 9830 | PPQPPQRPPPPTGL [O15056 1050-1064]
7 | 41.1 | 642 | PPKWIRRPVGASFS [O94979 386-399]
8 | 4490 | 7190 | PPLLPRRPPPRVPA [O15056 1170-1184]
9 | 3200 | 649 | ASFQPARPHRARHP [O95612 13-26]
10 | 16000 | 20000 | PPARPPRPPYPPRR [AAH27972 518-532]
11 | 316 | 2890 | PPPKPNRPPNVDLT [O15117 355-369]
12 | 61.4 | 312 | PPGKPERPPPQGGD [P81489 133-147]
13 | 1280 | 2410 | PPHLPARPPGGWSR [BAC04291 42-56]

Further lines, the binder ahead of its results:

Row | Binder | normalised SPOT signal, Boehringer light units (BLU); mean over the file's lines of this peptide [1] | normalised SPOT signal, Boehringer light units (BLU); mean over the file's lines of this peptide [2]
14 | PPPVPLRPPEHFIN [Q07890 1215-1229] | 189 | 435
15 | PPPPPERPPPIPPD [Q13191 554-568] | 29.1 | 74.8
16 | PPPRPPRPPSPPPE [Q9UPS6 163-177] | 5310 | 9410
17 | AARTLRRPKALDSG [Q96RY6 273-286] | 7.6 | 0
18 | PPLLPGRPARDRGP [Q9Y6J0 1777-1790] | 6220 | 27100
19 | ASATLGRPPRIPEP [Q9H0P6 178-191] | 139 | 65.5
20 | PPPLPQRPPPRLPP [Q9H9H4 263-277] | 2170 | 2770
21 | PPPLPNKPPPEDYY [Q8TED9 137-151] | 42.3 | 92.7
22 | PPEKPPRPPRPLHL [Q8TEL4 110-124] | 14400 | 29300
23 | PPASPRRPRSFKSK [Q9HCK6 1105-1118] | 58.1 | 272
24 | PPLLPPRPPQGLEP [Q8TEH3 833-847] | 107 | 335
25 | PPQVPSRPNRAPPG [Q05193 829-842] | 11000 | 19600
26 | PPPPPPRPPSRPKL [Q9BQI5 457-471] | 13700 | 13400
27 | PPGLPPRPPLSSSS [Q13470 532-546] | 433 | 5470
28 | PPPPPPRPPKQQPP [Q9UL51 22-36] | 994 | 1160
29 | PPPPPTKPPETEAQ [Q9UJJ7 281-295] | 59.9 | 63.1
30 | PPQVPSRPTRAPPR [Q9H0P3 825-838] | 6350 | 11000
31 | PPPPIPRPAKLQAA [Q9HCG4 308-321] | 91 | 102
32 | PPLPPPRPPRPPSP [Q9UPS6 160-174] | 5630 | 8000
33 | ASGGPRRPERHLPP [Q9Y6R0 7-20] | 3320 | 12600
34 | PPPIPKKPPKGKFP [Q9P1A6 952-966] | 64.7 | 3890
35 | PPKWIRRPTGVSFA [Q9NQW1 380-393] | 42.3 | 433
36 | PPLEPARPNRHPES [Q9H293 60-73] | 282 | 0
37 | PPPPPARPPARRAS [Q9H1V5 1094-1108] | 11500 | 13100
38 | PPPPPLRPPPPPPP [Q9BR93 13-27] | 283 | 1160
39 | PPQSPRRPELPDLA [Q00973 42-55] | 51.7 | 164
40 | PPPPPPRPSKPTPS [Q14956 325-338] | 1290 | 14300
41 | PPGKPERPPPQGGN [P10163 115-129] | 59.4 | 760
42 | ASAPPRRPRPPPQS [Q9UEI9 3-16] | 914 | 1320
